Measurements as given in patent US12286461B2, “Recombinant fused polypeptide and use thereof” (priority 2019, dated 2025).

How the values were obtained:
[1] = system: SD rats with bleomycin-induced pulmonary fibrosis; test: Bleomycin-induced pulmonary fibrosis animal model; assay type: in vivo; details: for content of TGF-β1 in serum, difference from the model group: fused polypeptides 10 mg/kg s.c. once every five days, nintedanib 25 mg/kg intragastric once a day
Description: SD rats were anesthetized by intraperitoneal injection of 4% chloral hydrate with a concentration of 1 mL/100 g. After anesthesia, the rats were fixed and their necks were disinfected by using cotton with 75% alcohol. The skin of the rat neck was longitudinally cut with scissors, and the fascia and muscle were longitudinally bluntly torn with tweezers to expose the trachea. A syringe was inserted into the trachea to inject 5 mg/kg bleomycin, while a blank group was injected with an equal amount of normal saline. Then a rat plate was quickly erected and rotated, the rats' breathing was observed, the neck wound was sterilized after rotation and was sewn, and an amoxicillin anti-inflammatory drug was sprinkled on the suture. After the operation, the rats were put back into a dry and clean cage for resting, waiting for awakening. The rats were awakened after about 1-2 hours, and then fed normally. On the 7th day after modeling, modeling group animals randomly fell into a model group, a Nintedanib positive drug group, recombinant fused polypeptide 1, 2, 3 and 4 dosage groups, and a normal control group, and the groups were administered separately for an administration cycle of 15 days. Living situations of rats were observed every day and their weights were weighed. After administration for 15 days, the eyeballs were removed and blood was taken, the rats were dissected, and lungs were taken. The content of TGF-β1 in serum and the content of HYP in lung tissues were detected.

[2] = system: SD rats with CCl4-induced hepatic fibrosis; test: CCl4-induced hepatic fibrosis animal model; assay type: in vivo; details: 40% CCl4 i.p. twice a week for 8 weeks, fused polypeptides 6 mg/kg s.c. once every five days
Description: Modeling was performed on the rats. Each group other than the blank group was injected with 40% CCl4 intraperitoneally twice a week, the first injection was performed at 3 mL/kg, and then injection was performed at 2 mL/kg. Modeling was performed for 8 weeks to induce hepatic fibrosis. After the intraperitoneal injection of CCl4 for the fourth time, the drugs were administered according to Table 3. After induction for 8 weeks, the administration was stopped. The SD rats were dissected the next day, and blood was taken. The liver tissue was stored in a refrigerator at −80° C. for further use. The expression of HYP in the hepatic tissue of rats was detected. [table]

[3] = system: SD rats with renal fibrosis; test: Renal fibrosis animal model (ureter ligation); assay type: in vivo; details: 6 mg/kg s.c. once every five days, after 15 days
Description: A renal fibrosis animal model was established. SD rats were anesthetized with 4% chloral hydrate, injected with 1 mL/100 g intraperitoneally, fixed to an operation board, and sterilized in an operation area for further use. […] Muscular layers and abdominal walls were sewed layer by layer, the suture was disinfected with alcohol. After SD rats woke up, the rats were put into a cage for feeding. In the blank group, ureter was not ligated, and other steps were the same.
Then, the animals fell into a blank group, a model group, and recombinant fused polypeptide administration groups, and the administration was started on the second day after the operation, and was performed for 15 days. After administration for 15 days, blood was taken and supernatant was taken to detect the content of TGF-β1 in serum.

[4] = system: mice with myocardial fibrosis; test: Isoprenaline-induced myocardial fibrosis animal model; assay type: in vivo; details: BALB/c mice, isoprenaline 5 mg/kg s.c. daily for 7 days, 12 mg/kg s.c. (Table 5), after the 8th day, FIG. 5
Description: In the model group, the experimental mice were injected with isoprenaline (ISO) (5 mg/kg) subcutaneously on the back of the mice every day for 7 consecutive days, and the mice were injected with normal saline subcutaneously (200 μL/mouse) every day. In the blank group, normal saline was injected subcutaneously (200 μL/mouse) every day. […] After the 8th day, blood was taken and was centrifuged, the supernatant was taken, and the content of TGF-β1 in serum was detected.

[5] = system: mice with bleomycin-induced skin fibrosis; test: Bleomycin-induced skin fibrosis model; assay type: in vivo, C57/BL black mice; details: C57/BL mice, bleomycin 10 μg/mL s.c. daily for 28 days, 10 mg/kg s.c. once every five days, 6 times, FIG. 6
Description: Bleomycin (10 μg/mL) was injected subcutaneously every day for 28 days to form skin fibrosis. During the modeling period, the administration groups were given drugs for treatment. After modeling, the mice were killed on the next day, and the skin tissue of the mouse back was taken to detect the content of HYP in the skin tissue. [table]

Streptococcus pneumoniae = test: Mouse pneumonia model, bacterial pneumonia; assay type: in vivo; details: BALB/C mouse pneumonia model, nasal drip; average ± standard deviation
Text: (§1) A mouse pneumonia model was successfully established by using a nasal drip method. BALB/C mice with a body weight of 18-24 g were selected, and then anesthetized with ether on day 0, day 1 and day 2, respectively, prepared Streptococcus pneumoniae bacteria solution, adenovirus concentrated solution, Mycoplasma pneumoniae, Chlamydia pneumoniae, protozoa and pneumonia fungi were slowly dropped into the nasal cavity of the mice, so that the bacteria solutions entered the trachea and bronchi, and the bacteria solutions were prevented from flowing into the esophagus during the operation to avoid inactivation of the bacteria solutions, so that the mouse pneumonia model was established. After the model was successfully established, the recombinant fused polypeptides according to the present invention were administered.

adenovirus = test: Mouse pneumonia model, viral pneumonia; assay type: in vivo; details: BALB/C mouse pneumonia model, nasal drip; average ± standard deviation
Text: as §1

Mycoplasma pneumoniae = test: Mouse pneumonia model, mycoplasma pneumonia; assay type: in vivo; details: BALB/C mouse pneumonia model, nasal drip; average ± standard deviation
Text: as §1

Chlamydia pneumoniae = test: Mouse pneumonia model, chlamydia pneumonia; assay type: in vivo; details: BALB/C mouse pneumonia model, nasal drip; average ± standard deviation
Text: as §1

protozoa = test: Mouse pneumonia model, protozoal pneumonia; assay type: in vivo; details: BALB/C mouse pneumonia model, nasal drip; average ± standard deviation
Text: as §1

pneumonia fungi = test: Mouse pneumonia model, fungal pneumonia; assay type: in vivo; details: BALB/C mouse pneumonia model, nasal drip; average ± standard deviation
Text: as §1

pulmonary infections = test: Mouse pneumonia model, pneumonia caused by pulmonary infections; assay type: in vivo, BALB/C mice; details: BALB/C mouse pneumonia model, nasal drip, average ± standard deviation
Text: as §1

[6] = listed as recombinant fused polypeptide IV

B1: Acetyl-SDKPGGGGTSLDASIIWAMMQNGGGGLSKLAEAAAKEAAAKEAAAKEAAAKKPRCWRGEGGGGIVRRADRAAVPGGGGRGD (protein)
chain: SDKPGGGGTSLDASIIWAMMQNGGGGLSKLAEAAAKEAAAKEAAAKEAAAKKPRCWRGEGGGGIVRRADRAAVPGGGGRGD
modifications: N-acetyl
notes: Recombinant fused polypeptide Y-linker2-X expressed in 293 cells
[1]; bleomycin 5 mg/kg intratracheal, dosage 10 mg/kg (Table 2), administration cycle 15 days from day 7 after modeling
  Survival rate (%): 92.9%
[1]; bleomycin pulmonary fibrosis, 10 mg/kg s.c. once every five days, after 15 days, FIG. 1
  hydroxyproline (HYP) content in lung tissue: can lower the hydroxyproline content
[1]; bleomycin pulmonary fibrosis, after 15 days, FIG. 2, listed as recombinant fused polypeptide 4
  content of TGF-β1 in serum, difference from the model group: significantly different from the model group (*P<0.05)
[1]; bleomycin pulmonary fibrosis, after 15 days, FIG. 2, listed as recombinant fused polypeptide IV
  content of TGF-β1 in serum, difference from the model group: can lower the TGF-β1 content
[2]; FIG. 3, listed as Recombinant fused polypeptide 4
  content of HYP in liver tissue, difference from the model group: highly significantly different from the model group (***P<0.001)
[2]; FIG. 3, listed as recombinant fused polypeptide IV
  content of HYP in liver tissue, difference from the model group: can lower the HYP content
[3]; FIG. 4, listed as recombinant fused polypeptide 4, 6 mg/kg
  content of TGF-β1 in serum, difference from the model group: highly significantly different from the model group (***P<0.001)
[3]; FIG. 4, listed as recombinant fused polypeptide IV, 6 mg/kg
  content of TGF-β1 in serum, difference from the model group: can lower the TGF-β1 content
[4]; listed as recombinant fused polypeptide 4
  content of TGF-β1 in serum, difference from the model group: significantly different from the model group (**P<0.01)
[4]; [6]
  content of TGF-β1 in serum, difference from the model group: can lower the TGF-β1 content
[5]; listed as recombinant fused polypeptide 4, 10 mg/kg
  content of HYP in skin tissue, difference from the model group: highly significantly different from the model group (***P<0.001)
[5]; listed as recombinant fused polypeptide IV, 10 mg/kg
  content of HYP in skin tissue, difference from the model group: can lower the hydroxyproline content
Streptococcus pneumoniae
  Inhibitory effect, Bacterial pneumonia: 48.61 ± 6.54
adenovirus
  Inhibitory effect, Viral pneumonia: 78.12 ± 8.27
Mycoplasma pneumoniae
  Inhibitory effect, Mycoplasma pneumonia: 47.30 ± 5.30
Chlamydia pneumoniae
  Inhibitory effect, Chlamydia pneumonia: 55.26 ± 6.12
protozoa
  Inhibitory effect, Protozoal pneumonia: 63.45 ± 4.68
Pneumonia fungi
  Inhibitory effect, Fungal pneumonia: 54.12 ± 5.12
Pulmonary infections
  Inhibitory effect, Pneumonia caused by pulmonary infections: 56.93 ± 5.28
Pulmonary infections; [6]
  Inhibitory effect, Pneumonia caused by pulmonary infections: inhibitory effect
